We go through one substance from patent publication US20070092940A1.

This assay deals with rabbit albumin (rabbit) (UniProt P49065). The experiment in a line: BIAcore kinetic analysis. (Surface plasmon resonance follows binding to a sensor surface in real time, without labels.)

pKd: −log10 of the molar value.

Chain of rabbit albumin (rabbit) (P49065 25-608 limits assumed): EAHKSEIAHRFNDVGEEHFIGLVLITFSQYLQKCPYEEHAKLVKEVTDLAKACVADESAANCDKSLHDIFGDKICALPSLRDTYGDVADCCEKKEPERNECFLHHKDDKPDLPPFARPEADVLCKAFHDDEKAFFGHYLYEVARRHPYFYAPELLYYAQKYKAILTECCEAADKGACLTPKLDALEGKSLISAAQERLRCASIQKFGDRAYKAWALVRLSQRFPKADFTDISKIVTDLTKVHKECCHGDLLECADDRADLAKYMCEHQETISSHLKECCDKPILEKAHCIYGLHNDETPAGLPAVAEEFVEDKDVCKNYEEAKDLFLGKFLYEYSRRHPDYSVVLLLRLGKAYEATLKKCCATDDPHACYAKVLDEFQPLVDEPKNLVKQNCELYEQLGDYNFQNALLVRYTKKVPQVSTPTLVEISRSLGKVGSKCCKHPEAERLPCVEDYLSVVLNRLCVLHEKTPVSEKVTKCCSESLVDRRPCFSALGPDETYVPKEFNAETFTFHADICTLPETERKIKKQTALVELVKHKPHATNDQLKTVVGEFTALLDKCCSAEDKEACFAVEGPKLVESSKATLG

For the substance ABP-hu4D5Fabv8 wild type, the pKd (commonly the negative decadic logarithm of the Kd, by convention in mol/L) is 6.91.
